Laboratory results reported in patent US20080227704A1 (published 2008).

How the values were obtained:
[1] = target: T1, recombinant purified mouse CXCL13 (mouse, UniProt O55038 22-109, biotinylated in the ELISA of Example 1.1.A.1 (sites not given); unlabelled in Biacore); experiment: ELISA, antibody captured by goat anti-mouse IgG Fc, biotinylated mouse CXCL13 detected with streptavidin-HRP
T1 construct: Bought recombinant protein (R&D Systems); also called murine CXCL13; mCXCL13
T1 sequence: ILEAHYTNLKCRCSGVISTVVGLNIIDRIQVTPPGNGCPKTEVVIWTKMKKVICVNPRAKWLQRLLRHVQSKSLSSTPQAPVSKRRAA
Method: ELISA plates (Corning Costar, Acton, Mass.) were coated with 50 μL/well of 5 μg/ml goat anti-mouse IgG Fc specific (Pierce # 31170, Rockford, Ill.) in Phosphate Buffered Saline (PBS) overnight at 4 degrees Celsius. Plates were washed once with PBS containing 0.05% Tween-20. Plates were blocked by addition of 200 μL/well blocking solution diluted to 2% in PBS (BioRad #170-6404, Hercules, Calif.) for 1 hour at room temperature. Plates were washed once after blocking with PBS containing 0.05% Tween-20.
Fifty microliters per well of mouse sera or hybridoma supernatants diluted in PBS containing 0.1% Bovine Serum Albumin (BSA) (Sigma, St. Louis, Mo.) was added to the ELISA plate prepared as described above and incubated for 1 hour at room temperature. Wells were washed three times with PBS containing 0.05% Tween-20. Fifty microliters of biotinylated recombinant purified mouse CXCL13 diluted to 100 ng/mL in PBS containing 0.1% BSA was added to each well and incubated for 1 hour at room temperature. Plates were washed 3 times with PBS containing 0.05% Tween-20. Streptavidin HRP (Pierce # 21126, Rockland, Ill.) was diluted 1:20000 in PBS containing 0.1% BSA; 50 μL/well was added and the plates incubated for 1 hour at room temperature. Plates were washed 3 times with PBS containing 0.05% Tween-20. Fifty microliters of TMB solution (Sigma # T0440, St. Louis, Mo.) was added to each well and incubated for 10 minutes at room temperature. The reaction was stopped by addition of 1N sulphuric acid. Plates were read spectrophotmetrically at a wavelength of 450 nm.

[2] = target: T1, recombinant purified mouse CXCL13; experiment: cell-based or functional assay
[3] = target: T1, recombinant purified mouse CXCL13; experiment: SPR (Biacore), antibody captured by goat anti-mouse IgG Fc, mouse CXCL13 injected at 0.78-50 nM, 25 C
Method: Binding of antibodies to recombinant purified mouse CXCL13 were determined by surface plasmon resonance-based measurements with a Biacore® 2000 and 3000 instruments (Biacore® AB, Uppsala, Sweden) using running HBS-EP (10 mM HEPES pH 7.4, 150 mM NaCl, 3 mM EDTA, and 0.015% surfactant P20) at 25° C. Experimental data from all kinetic rate determinations of the antibody-antigen reaction were analyzed using Biaevaluation software version 4.0.1.
Mouse Anti Mouse CXCL13 antibodies to be captured as a ligand on the carboxymethyl dextran matrix were diluted in HBS-EP with 0.015% P20 at a concentration of 5-μg/mL. 50-100 μL aliquots were injected over the covalently coupled goat anti-mouse IgG Fc polyclonal antibody biosensor matrices at a flow rate of 25-50 μL/min. The net difference in the baseline signal and the signal after the completion of antibody injection was taken to represent the amount of bound Mouse Anti Mouse CXL13 antibody. Biosensor matrices were typically regenerated with subsequent 25 μL injections of 10 mM Glycine (pH 1.5) before the injection of the next sample. Glycine treatment disrupts the association of non-covalently bound proteins thus Anti CXCL13 antibody-mouse CXCL13 complex dissociates and washes off. The anti-mouse IgG antibody immobilized surfaces were completely regenerated. Aliquots of mouse CXCL13 antigen were injected at a flow rate of 25-50 μL/min over Anti CXCL13 purified monoclonal antibodies captured on the biosensor chips. The concentrations of mouse CXCL13 was ranging between 0.78-50 nM. HBS-EP with 0.015% P20 was flowed through each flow cell in between various cycles of antigens and also immediately before and after the end of kinetic analysis. The signal stabilized 120-180 seconds after the completion of the injection cycle. The net difference in signal between the baseline and the point corresponding to approximately 30 seconds after the completion of antigen injections was taken to represent the amount of antigen bound. The response was measured in resonance units (RU) representing the mass of bound CXCL13 antigen. CXCL13 antigen was also simultaneously injected over the goat anti mouse IgG Fc or goat IgG reference and reaction CM4 surface to record any nonspecific binding background.

B1: XW25-5D11-4F3-3D11 (antibody, V domains shown)
VH: EVQVQQSGAELVRPGSSVKMSCKTSGYTFTNYGIIWVKQRPGQGLEWIGYIYIGKGYTEYNEKFKGKATLTSDTSSSTVYMQLSSLTSEDSAIYFCARGAHYYGNAMDYWDQGTSVTVSS
VL: DIQMTQTTSSLSASLGDRVTISCRSSQDISNFLNWYQQRPDGTVKLLIYYTSRLHSGVPSRFSGSGSGTDYSLTISNLEQEDIATYFCQQGDTLPWTFGGGTKLEIKR
notes: Mouse anti-mouse CXCL13 monoclonal antibody purified from hybridoma
[1]
  EC50: 0.03 nM
[2]
  Average Kb (nM) Chemotaxis Assay: 18.9 nM
[3]
  kon: 1e+06 M⁻¹ s⁻¹

B2: XW25-2C4-4H8 (antibody, V domains shown)
VH: QVQLQQPGTELVKPGASVKLSCKASGYNFATYWMHWVKQRPGQGLEWIGNINPSDGGTNFNEKFNNKATLTVDKSSSTAYMQLSSLTSEDSAVYYCAKWGGHYVLYWYFDVWGTGTTVTVSS
VL: DIVLTQSPATLSVTPGDSVSLSCRASQSISSNLHWYQQKSHESPRLLITYASQSISGIPSRFSGSGSGTDFTLSINSVESEDVGVYFCQQSDSWPLTFGAGTKLELKR
notes: as for B1
[1]
  EC50: 0.02 nM
[2]
  Average Kb (nM) Chemotaxis Assay: 23 nM
[3]
  Kd: 0.013 nM
  koff: 3.6e-05 s⁻¹
  kon: 2.7e+06 M⁻¹ s⁻¹

B3: XW25-3B5-3F4 (antibody, V domains shown)
VH: QVQLQQPGTELVKPGTSVKLSCKASGYTFTSYWMHWVKQRPGQGLEWIGNINPSDGGIKYNEKFKSKATLTVDKSSSTAYMELSSLTSEDSAVYYCAKWGGHYVLYWYFDVWGTGTTVTVSS
VL: DIVLTQSPATLSVTPGDSVSLSCRASQSISNNLHWYQQKSHESPRLLINYASQSISGIPSRFSGSGSGTDFTLSINSVETEDFGMYFCQQSNSWPLTFGAGTKLELKR
notes: Mouse anti-mouse CXCL13 monoclonal antibody from hybridoma
[1]
  EC50: 0.04 nM

B4: XW25-6A2-2F10 (antibody, V domains shown)
VH: QVQLQQPGTELVKPGASVKLSCKASGYNFATYWVHWVKQRPGQGLEWIGNINPSDGGTSYNEKFSKKATLTVDKSSSTAYMELSSLTSEDSAVYYCAKWGGHYVLYWSFDVWGTGTTVTVSS
VL: DIVLTQSPATLSVTPGDSVSLSCRASQSISNNLHWYQQRSHESPRLIITHVSQSISGIPSRFSGSGSGTDFIFSINSVESEDFGVYFCQQSNSWPLTFGAGTKLELKR
notes: as for B1
[1]
  EC50: 0.02 nM
[2]
  Average Kb (nM) Chemotaxis Assay: 8.12 nM
[3]
  Kd: 0.002 nM
  koff: 2.7e-06 s⁻¹
  kon: 1.6e+06 M⁻¹ s⁻¹

B5: XW25-7C7-5E5 (antibody, V domains shown)
VH: QVQLQQPGTELVKPGASVKLSCKASGYNFATYWMHWVKQRPGQGLEWIGNINPSDGGTNFNEKFNNKATLTVDKSSSTAYMHLSSLTSEDSAVYYCAKWGGHYVLYWYFDVWGTGTTVTVSS
VL: DIVLTQSPATLSVTPGDSVSLSCRASQNINNNLHWYQQKSHESPRLLITYTSQSISGIPSRFSGSGSGTDFTLSINSVESEDVGVYFCQQSDSWPLTFGAGTKLELKR
notes: as for B3
[1]
  EC50: 0.02 nM

B6: XW25-4F2-5D2 (antibody, V domains shown)
VH: QVQLQQPGTELVKPGASVKLSCKASGYNFPTYWMHWVKQRPGQGLEWIGNINPSDGGTNFNEKFNNKATLTVDKSSSTAYMQLSSLTSEDSAVYYCAKWGGHYVLYWYFDVWGTGTTVTVSS
VL: DIVLTQSPATLSVTPGDSVSLSCRASQSISNNLHWYQQKSHESPRLLITYASQSISGIPSRFSGSGSGTDFTLSINSVESEDVGVYFCQQSDSWPLTFGAGTKLELKR
notes: as for B3
[1]
  EC50: 0.02 nM
[2]
  Average Kb (nM) Chemotaxis Assay: 16 nM

B7: XW25-8H6-4F9 (antibody, V domains shown)
VH: QVQLQQPGTELVKPGASVKLSCKASGYNFATYWMHWVKQRPGQGLEWIGNINPSDGGTNYNEKFNNKATLTVDKSSSTAYMQLSSLTSEDSAVYYCAKWGGHYVLYWYFDVWGTGTTVTVSS
VL: DIVLTQSPATLSVTPGDSVSLSCRASQSINNNLHWYQQESHESPRLLITYASQSISGIPSRFSGSGSGTDFTLSINSVESEDFGVYFCQQSNSWPLTFGAGTKLELKR
notes: as for B3
[1]
  EC50: 0.03 nM

B8: XW25-9C10-4B11 (antibody, V domains shown)
VH: QVQLQQPGTELVKPGASVKLSCKASGYNFATYWMHWVKQRPGQGLEWIGNINPSDGGTNFNEKFNSKATLTVDKSSSTAYMQLSSLTSEDSAVYYCAKWGGHYVLYWYFDVWGTGTTVTVSS
VL: DIVLTQSPATLSVTPGDSVSLSCRASQSISSNLHWYQQKSHESPRLLITYASQSISGIPSRFSGSGSGTDFTLSINSVESEDVGVYFCQQSDSWPLTFGAGTKLELKR
notes: as for B3
[1]
  EC50: 0.01 nM
